{
  "source": "the DeepSol protein solubility set",
  "data": [
    {"assay": "soluble on expression in E. coli; label from the status in PepcDB or PDB records", "values": [
      {"sequence": "MGTSFRQYFKIVPALTEELKREAYRVRHSVYCEDLQFESSRSDGFEIDEYDAHSLHLLIRSINNDTFIGCTRIIRPSSNSNDRRLPFEKTCAQTLDRSIIDPSRLPADKIGEVSRLAVIAAFRRRKGEKNHPINISEEDFSTGPMMRFPYIPLSLYIGTIELARIHDIRVLFMLTEERLASHFSRLGAQLEPIGAPVEHRGLRFPSMVEINSIISNMRPIFRPLYQAIAEDIKAELEKKNH", "soluble on expression in E. coli": "not soluble"},
      {"sequence": "MGSDKIHHHHHHMPTIHLIDGEKGGVGKSLVARTMIQYCLDNNMPFVPVETDRSNPDVAGVYKGICQYAVFTEDERHADKADKIFEIAMNKTVIANLAAQSHRAVKGWIEKNHLIELGESQGVDFCKWFVSTGGYDSLNLFKQSVNSYGGKVPHILVKNLGLCDDWEHVNSDATIQEVVKKYNVKAIDFPKLAYKERNIIDQHRLTFADAREYKEFGIISKQRVVNFLKLAYASFETVGIWYEEVK", "soluble on expression in E. coli": "not soluble"},
      {"sequence": "MGSDKIHHHHHHMRYAIYFSPAKDHPLTEAASRWLGRNAFSGTLHDDHDDYADLTEEPRRYGFHATLKAPFELAEKYSEAELLAAVEDFAANQSAFEIPRVVVGALGPFFALVPDRVYQPLQDFAAEVVDHFDRFRAPLSETDIARRRPQMLTESQRQNLSLWGYPHVMDDFRFHMTLTGRIDEEEQPAMQEILSTRFAEFVDQPLAISGLALFIEETRGAPFTVHRWHPLGQQPKKDANP", "soluble on expression in E. coli": "not soluble"},
      {"sequence": "GSHMVLTKKKLQDLVREVDPNEQLDEDVEEMLLQIADDFIESVVTAACQLARHRKSSTLEVKDVQLHLERQWNMWI", "soluble on expression in E. coli": "soluble"},
      {"sequence": "MAESVNLVCTFCGSVCDDGQFDVEQFKSKKLCKLGSAKFSKKERIKAPMIDGKEVSYEEAIEKAAEILVNAKKPLLYGWASTVNEAIRLGVILTEKVGGVYDQCASVCHAPGTLAVIEEGLPGGTLGAIKNRADVVVFWGANPMEAHPRHGMRYSISAKGLLIKDRKQRKVIVVDVRPTKTAKLADEFIQIKPGYDYPIISALRAIISGNADAVPDEVGGVSKEKLVELAETMKNAKYGAVLYGLGVTQSRGRDRNVENAVKLIQLLNRHTRWVIWPMRGHYNVVGAGEVPAWEVGYQYAIDFSRGYPRFSPAEFSAVEVLKRKDCDAALIIASDPVAHFPRAAVKHLKEIPVIQIDPFPNMTTLVANVVIPSAVAGLEAEGTAYRMDGIALRVKKVVESSYWSDEQILEKLLEKVEELKG", "soluble on expression in E. coli": "not soluble"},
      {"sequence": "MAEPLFDMSATGRPRILILGGTTEARQLAERLVSEPHYDTAISLAGRTADPRPQPLPTRTGGFGGAEGLAVFLRERNIALLIDATHPFAARISLNAAAAAKMTGTPLLALRRPAWAAEPGDRWTCVGSVAEAVPALGEAPRRVFLAIGRQEAFHFERAPQHSYVVRSVDPVMPPLDLPDVTAILASGPFAQADETELLERHGIDVIVAKNSGGAATYGKIAAARQLGIEVVMVERHKPADVQSVGDCDEALERIRQWLSPVKDRGV", "soluble on expression in E. coli": "not soluble"},
      {"sequence": "MKPVYLAMNYFGPHEHSIIDFSKLESTPIFLISGDTGAGKSTIFDAMTFALFGSTTNDGTDGRAAKEMRSQFAPADQPTSVTFYFEQGNQLYKIARSPEQYLAKKKGSGLTKKNSTAKLAVVDHVGGVEIESIATKPADVGPEITTILNLTADQFKKIILLPQNDFSEFLKSKTTDKEKILKKIFGTQLYSDFTAELKAEYQTASKTGDQFVADLRVALASATWNDEEQAQLQAVPDNQKIPLLRAFVTTRQSAFDQAQQT", "soluble on expression in E. coli": "not soluble"},
      {"sequence": "MLNSKPVSYQVLKFILKHLDPSLRIQLCLVCPSIHTLEKSTPSYIHYLKITDNSVTVNRVTCQITVTDRKVDYQFDINQFPSISGTVELRNSRNNLTKTMKYLLDKLFKGRTVKVGQLAISCENPLRVPLAARINVNVLEVFDSRSLSAASSLIANSCLPLSLIKLPFKSLLKTNNNPITSIVNRKTKKWHFKAPTTAPHNLRRVLTFLQNRRVTTAHFERGHFCFSIVIEYFMGDSDIENGTYYTFDTTRGAVFVVMERSRKRYKAMLEDGSSRRSNQLTIKKNSTSKLVISKIQQGDAWILGFKIERRRLFPTFF", "soluble on expression in E. coli": "not soluble"},
      {"sequence": "RYHEFLGHFMNQFTSFGVAGAHGKTSTTGLLSHSMKNITDTSYLIGDGTGRGSANAQYFVFEADEYERHFMPYHPAYSIITNIDFDHPDYFTSIDDVFSAFDDYAKQVQKGLFVYGEDSNLRKITSNAPIYYYGFEENDDFMATDIIRTTTGSNFKVKHDGQIIGEFHVPAYGRHNILNATAVIANLYVAGFDMALVAEHLKTFSGV", "soluble on expression in E. coli": "not soluble"},
      {"sequence": "MGHHHHHHSHCSSCSTPLYDQGGPVEILPFLYLGSAYHASRKDMLDALGITALINVSANCPNHFEGHYQYKSIPVEDNHKADISSWFNEAIDFIDSIKNAGGRVFVHCQAGISRSATICLAYLMRTNRVKLDEAFEFVKQRRSIISPNFSFMGQLLQFESQVLAPHCSAEAGSPAMAVLDRGTSTTTVFNFPVSIPVHSTNSALSYLQSPITTSPSC", "soluble on expression in E. coli": "not soluble"},
      {"sequence": "MGILKSLFTLGKSFISQAEESIEETQGVRMLEQHIRDAKAELDKAGKSRVDLLARVKLSHDKLKDLRERKASLEARALEALSKNVNPSLINEVAEEIARLENLITAEEQVLSNLEVSRDGVEKAVTATAQRIAQFEQQMEVVKATEAMQRAQQAVTTSTVGASSSVSTAAESLKRLQTRQAERQARLDAAAQLEKVADGRDLDEKLAEAGIGGSNKSSAQDVLARLQRQQGELEHHHHHH", "soluble on expression in E. coli": "not soluble"},
      {"sequence": "MGSDKIHHHHHHMQQLTKPKKIAIIGAGFRGITAAKIFQDAGIEFVILDKNDATGGVWRTFANQSSYVQIPEPEYRFDMDYPNGLPSEFTPRDEILAHAERFINVHGIGKHIIFKSEVFSIEDISDSKYRVYYKHDNANKSLEVDGIYYAGGRLHKRRTVHFPGEKNFQGLIRYGISDDMPISEYRGKKVAIIGCGAFAMENARTALLNGATHVTIIAKTINIVLPRMVMFWLNSMRLAPVAPLLKMSWKMYDWAGTNFMKENLDGFSINQRTVPIISDFIFLAHKVGKAEFKKDSIDFIDSNSVVTSDGTKIEADIILKCVGFEGQMDVFKQVYPPFEAVNWIWVNKKTNFVLDQDPEFGMTTKATKLMTSGSTLLLTKIAARVFAMSLINPSKFEQIIPVLPTSQNAGYNISYHMGSLSKLLVANKDIKKFILRTSAKKSKSMIEKGGNGKYLEFCKREWKQQCEALGVEEVEYPFVFPWWILLWENWQQLVNRFFLAAFPEQNIVRDIQPEDVEWSFISAES", "soluble on expression in E. coli": "not soluble"},
      {"sequence": "AGTYNYGEALQKSIMFYEFQRSGDLPADKRDNWRDDSGMKDGSDVGVDLTGGWYDAGDHVKFNLPMSYTSAMLAWSLYEDKDAYDKSGQTKYIMDGIKWANDYFIKCNPTPGVYYYQVGDGGKDHSWWGPAEVMQMERPSFKVDASKPGSAVCASTAASLASAAVVFKSSDPTYAEKCISHAKNLFDMADKAKSDAGYTAASGYYSSSSFYDDLSWAAVWLYLATNDSTYLDKAESYVPNWGKEQQTDIIAYKWGQCWDDVHYGAELLLAKLTNKQLYKDSIEMNLDFWTTGVNGTRVSYTPKGLAWLFQWGSLRHATTQAFLAGVYAEWEGCTPSKVSVYKDFLKSQIDYALGSTGRSFVVGYGVNPPQHPHHRTAHGSWTDQMTSPTYHRHTIYGALVGGPDNADGYTDEINNYVNNEIACDYNAGFTGALAKMYKHSGGDPIPNFKAIEKITNDEVIIKAGLNSTGPNYTEIKAVVYNQTGWPARVTDKISFKYFMDLSEIVAAGIDPLSLVTSSNYSEGKNTKVSGVLPWDVSNNVYYVNVDLTGENIYPGGQSACRREVQFRIAAPQGTTYWNPKNDFSYDGLPTTSTVNTVTNIPVYDNGVKVFGNEP", "soluble on expression in E. coli": "soluble"},
      {"sequence": "MLCHTLISSFNNHIWRFLIMENKMNDNRVPRERVAILIDSGCDVTEELIRQYNMKLLRLHVIYPEKDYSDDLDISPQTVYERFPGEIPHTSTPSPQEVKDMADELKREGYTHVLAFAISSGLSGTYNTMCSVLNEEEELTSFVLDTRNISFGSGVLAVWAAQKLEEGMPYEELVRLLPGKVQDSKILYYMDTLTYLQKGGRIGLVTSIVGNILNLKPIISCNCEGVYYTVAKIRGSKQGMTKLLAEAKDFAGDGPVWFSLLNGNAAAASNEMLKRITEALPEGKHLLSKQIAASLAVHTGPGLLGIGILKNP", "soluble on expression in E. coli": "not soluble"},
      {"sequence": "MGSDKIHHHHHHMRVKHFELLTDEGKTFTHVDLYGKYTILFFFPKAGTSGCTREAVEFSRENFEKAQVVGISRDSVEALKRFKEKNDLKVTLLSDPEGILHEFFNVLENGKTVRSTFLIDRWGFVRKEWRRVKVEGHVQEVKEALDRLIEEDLSLNKHIEWRRARRALKKDRVPREELELLIKAAHLAPSCMNNQPWRFVVVDEEELLKKIHEALPGGNYWMKNAPALIAVHSKKDFDCALPDNRDYFLFDTGLAVGNLLVQATQMGLVAHPVAGYDPVKVKEILKIPEDHVLITLIAVGYLGDESELSEKHRELERSERVRKELSEIVRWNL", "soluble on expression in E. coli": "not soluble"},
      {"sequence": "MGHHHHHHMAGVSEYELPEDPRWELPRDRLVLGKPLGEGAFGQVVLAEAIGLDKDKPNRVTKVAVKMLKSDATEKDLSDLISEMEMMKMIGKHKNIINLLGACTQDGPLYVIVEYASKGNLREYLQARRPPGLEFSFNPSHNPEEQLSSKDLVSCAYQVARGMEYLASKKCIHRDLAARNVLVTEDNVMKIADFGLARDIHHIDYYKKTTNGRLPVKWMAPEALFDRIYTHQSDVWSFGVLLWEIFTLGGSPYPGVPVEELFKLLKEGHRMDKPSNCTNELYMMMRDCWHAVPSQRPTFKQLVEDLDRIVALTSNQEYLDLSMPLD", "soluble on expression in E. coli": "soluble"},
      {"sequence": "MASHMERDPQVAGLKVPPHSIEAEQSVLGGLMLDNERWDDVAERVVADDFYTRPHRHIFTEMARLQESGSPIDLITLAESLERQGQLDSVGGFAYLAELSKNTPSAANISAYADIVRER", "soluble on expression in E. coli": "soluble"},
      {"sequence": "MGSDKIHHHHHHMNHLLKQAKRVASECECGHEHQWIEMDELQLGRNAINYLPEYLHEKGLLHVTIVADANTYAVAGQLVAQLLKGRGIDVENCILKEQGALTLLADEHGLGQLVIGAAKETDVFLAVGAGTIHDLTRIASYKFGKPFIAIPTAPSVDGFTSMGAPVIRDGVKITFQTQAPIALFADLDFLTQAPRSMVAAGFGDMLGKSTSLVDWQVSHMLNDEPFCPAVFHMTKSALTMCMEHADEIAACNEQGIRLLTEALIMSGLAMLIFGHSHPASGAEHHLSHYWEMAFLRSGGTQPLHGAKVGYATMLISALYKNEARKKIETFQGEGSPLVNSIHKHRERLLMLIDTIPESSDIQRLLESVGGAVKSADLALADSLEDEALEKAHKLRERCTLLYCLNEHLKTS", "soluble on expression in E. coli": "not soluble"},
      {"sequence": "MGSDKIHHHHHHMSVRCASLSAMELTQATVNDLLAQLGPGDSYMYLPSDLDPQDLTDLLDGRYGAARTLVLDGFTDPTVDESRGAALLVPFEDRAVKIRAWAYGDQWVGTGTARDAKGAERPVLVVAHREVPEPLAVAPDEDEDVDWMERLIRITGWTRPAQRPDVDWAEVESRLGTALPSDYKRMVETFGEGAFDGYLDLNQEPWTDLRRDGLLIWAGTEHEDLYCWRADGDDPDRWPVVVRSFDNKDVPFDCQAAKFVCRILIDPHHPFTMARYFDTHWFMNYRESG", "soluble on expression in E. coli": "not soluble"},
      {"sequence": "MNFRTGQPSDAAALAAISIEVWLGTYMRKGVSAFFAEYALNEFTSTKMASLLKDPNEHVIVSENEGGIDAFIRLGQGRAAPVSGCSTLEIATLYVQPRHHRRGLGRALLEQGLAYARQASAPSVWLTTNSENAPAIAFYLEQGFEKVGTTHFNIGDQAYLNDVFRRIVSM", "soluble on expression in E. coli": "soluble"}
    ]}
  ]
}
